Numbering of substitutions follows the chain as printed. One block for each molecule: values may come before it.
Experiments:
HeLa S3 cells = assay: Propidium iodide nuclear staining / apoptosis; format: cell-based, human
S2-CP8 cells = assay: Combination therapy assay, S2-CP8 xenograft tumors; format: in vivo, mice; conditions: single agent
Description: Hv1Lt1 antibody or control IgG (280 µg/dose) was intraperitoneally administered twice a week. Gemcitabine (100 µg/dose, once weekly) or nab-PTX (10 mg/kg, twice weekly) was intraperitoneally administered. While lenvatinib (1 mg/kg) or a 0.5% (wt/vol) methylcellulose 400 solution was orally administered once a day, 6 days per week, tumor formation was continued for an additional 21 days, after which the mice were euthanized. The volume and weight of the excised tumors were measured.

[1] = biological target: T1, human CKAP4 extracellular region (465-602 amino acids) (human, UniProt Q07065 465-602); assay: SPR (Biacore T200, 25 C), antibody captured on anti-human IgG CM5 chip, CKAP4 465-602 as analyte, 1:1 Langmuir fit
T1 construct: also called extracellular region of CKAP4; extracellular domain of CKAP4
T1 sequence: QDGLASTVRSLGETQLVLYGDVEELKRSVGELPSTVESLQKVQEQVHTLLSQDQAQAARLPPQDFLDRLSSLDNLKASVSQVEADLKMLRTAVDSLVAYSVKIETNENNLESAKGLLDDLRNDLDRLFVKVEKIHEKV

[2] = biological target: T2, CKAP4 in lysates of mouse lung cancer cells Lewis Lung Carcinoma (LLC) (mouse, UniProt Q8BMK4 1-575); assay: blot of LLC cell lysate
T2 construct: also called mouse CKAP4; endogenous CKAP4 (mouse tissues)
T2 sequence (looked up): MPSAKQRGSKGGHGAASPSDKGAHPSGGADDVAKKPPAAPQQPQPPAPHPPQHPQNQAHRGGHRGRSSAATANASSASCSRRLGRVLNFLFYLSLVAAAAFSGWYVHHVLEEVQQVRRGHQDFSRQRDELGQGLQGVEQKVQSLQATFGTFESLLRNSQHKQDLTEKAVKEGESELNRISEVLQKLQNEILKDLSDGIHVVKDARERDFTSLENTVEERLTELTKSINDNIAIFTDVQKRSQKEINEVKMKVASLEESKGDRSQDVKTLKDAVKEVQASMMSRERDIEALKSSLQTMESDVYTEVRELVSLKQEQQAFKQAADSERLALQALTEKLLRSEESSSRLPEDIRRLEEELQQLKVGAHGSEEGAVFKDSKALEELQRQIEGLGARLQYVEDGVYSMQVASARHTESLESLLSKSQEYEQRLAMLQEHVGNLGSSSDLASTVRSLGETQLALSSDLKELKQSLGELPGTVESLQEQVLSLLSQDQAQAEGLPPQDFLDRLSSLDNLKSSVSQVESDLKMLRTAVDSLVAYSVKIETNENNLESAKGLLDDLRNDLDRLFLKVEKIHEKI

[3] = biological target: T1, human CKAP4 extracellular region …; assay: SPR (Biacore T200, 25 C), antibody captured on anti-mouse IgG CM5 chip, CKAP4 465-602 as analyte, 1:1 Langmuir fit

Molecule: CN[C@@H]1C[C@H]2O[C@@](C)([C@@H]1OC)n1c3ccccc3c3c4c(c5c6ccccc6n2c5c31)C(=O)NC4 [staurosporine]
nuclear staining with propidium iodide (HeLa S3 cells): strongly stained

Molecule: Nc1ccn([C@@H]2O[C@H](CO)[C@@H](O)C2(F)F)c(=O)n1 [gemcitabine]
antitumor effects in vivo as single agents (S2-CP8 cells): antitumor effects

Kd [1]: 761 pM
koff [1]: 1.14e-05 s⁻¹
kon [1]: 15000 M⁻¹ s⁻¹
B1: Humanized anti-CKAP4 antibody Hv1Lt1 (antibody, human IgG1, V domains shown)
VH: QVQLVQSGAEVKKPGASVKVSCKASGFTFTSYWMHWVRQAPGQGLEWIGNINPSNGGTNYNAKFKSRVTMTRDTSTSTVYMELSSLRSEDTAVYYCARWVSFSYRGAMDYWGQGTLVTVSS
VL: EIVLTQSPDFQSVTPKEKVTITCRASRAIRNNLHWYQQKPDQSPKLLIKYVSQSISGVPSRFSGSGSGTDFTLTINSLEAEDAATYYCQQSDSWPYTFGQGTKLEIK
notes: also called HvlLtl; Humanized antibody Hv1Lt1

Kd [1]: 44.9 pM
koff [1]: 1.7e-06 s⁻¹
kon [1]: 37900 M⁻¹ s⁻¹
binding result [2]: binds
B2: Humanized anti-CKAP4 antibody Hv2Lt1 (antibody, human IgG1, V domains shown)
VH: B1 VH with F27Y, I48M, N50I, N59S, N61A, A62Q, K65Q, S66G
VL: B1 VL
notes: also called Hv2Ltl; Humanized antibody Hv2Ltl

Kd [3]: 14500 pM
koff [3]: 0.0018 s⁻¹
kon [3]: 125000 M⁻¹ s⁻¹
B3: Mouse anti-CKAP4 antibody 3F11-2B10 (antibody, V domains shown)
VH: VQLQQQPGTELVKPGASVKLSCKASGFTFTSYWMHWVKQRPGQGLEWIGNINPSNGGTNYNAKFKSKATLTVDKSSSTAYMQLSSLTSEDSAVYYCARWVSFSYRGAMDYWGQGTSVTVSS
VL: DIVLTQSPAILSVTPGDGVSLSCRASRAIRNNLHWFQQKSHESPRLLIKYVSQSISGIPSRFSGSGSGTDFTLSVDSVETEDFGVYFCQQSDSWPYTFGGGTKLEIK
notes: Mouse monoclonal antibody; also called Mouse antibody 3F11-2B10; original mouse anti-CKAP4 antibody
